# Source: article PMC12541621
# Target: Recombinant Human HER2 ECD (human) (UniProt P04626)
# Assay: SPR
substance,measurement,value
ABY-025 (designed binder),Kd,107 pM
